For experiment [1], the target named is SARS-CoV-2 spike protein (S protein) (SARS-CoV-2, UniProt P0DTC2 16-1213). Kind of experiment: ELISA, coated S protein, antibody at 1 ug/mL. The procedure: (§1) Polystyrene microplates (Corning) were coated overnight with 0.1 or 1 μg/mL of SARS-CoV-2 S, S1 or RBD protein (Sino Biological). After washing with PBS containing 0.2% Tween 20, the plates were blocked using 2% BSA (Sigma Aldrich) in PBST for 1 hour at 37° C. Following washing with PBST, testing antibodies (1 ug/mL) were added to each well and incubated at 37° C. for 1 hour. After washing with PBST, HRP-conjugated goat anti-human IgG antibody was added at the dilution of 1:5000 and incubated at 37° C. for 1 hour. After washing, 3,3′,5,5′-Tetramethylbenzidine (TMB) substrate solution was added to the microplate and incubated at room temperature for 6 min, followed by adding 2M H₂SO₄ to stop the reaction. The absorbance was detected at 450 nm.
(In general: ELISA stands for enzyme-linked immunosorbent assay.)

The target in the next experiment is T1, SARS-CoV-2 S1 subunit (SARS-CoV-2, UniProt P0DTC2 16-685).
T1 construct: domain: S1 subunit
Kind of experiment: ELISA, coated S1 protein, antibody at 1 ug/mL. The procedure: as §1

Experiment [2] deals with SARS-CoV-2 RBD protein (receptor-binding domain of the spike protein) (SARS-CoV-2, UniProt P0DTC2 319-541). Kind of experiment: ELISA, coated RBD protein, antibody at 1 ug/mL. Here is the method: as §1

B1: Antibody 15A7 (antibody, V domains shown)
VH: QVQLVQSGAEVKKPGASVKVSCKASGYTFTSYDINWVRQASGQGLEWMGWMNPNSANPGYAQKFQGRVTMTRNTSISTAFMELSSLRSDDTAVYYCARARVTIHYDILTGYYSNAFDIWGQGTMVAVSS
VL: DIQMTQSPSSLSASVGDRVTITCRASQTISSYLNWYQQKPGKAPKLLIYAASSLQSGVPSRFSGSGSGADFTLTISSLQPEDFATYYCQQSYTTFMYTFGQGTMLEIK
For B1, the binding result (in experiment [1]; with SARS-CoV-2 S1 subunit; in experiment [2]) was “binds” in each case.

B2: Antibody 37G2 (antibody, V domains shown)
VH: QVQLVQSGAEVKKPGSSVKVSCKASGGTFSSYAITWVRQAPGQGLEWMGGIIPIFGTANFAQKFQGRVTITADESTSTAYMELSSLRSEDTAVYYCAHLGGFADPFDYWGQGTLVTVSS
VL: EIVLTQSPATLSLSPGERATLSCRASQSVSNYLAWYQQKAGQAPRVLIYDAFNRATGIPARFSGSGSGTDFTLTISSLEPEDFAVYYCQQRSNWPPRITFGQGTRLEIK
With B2, the binding result in the experiment with SARS-CoV-2 S1 subunit is “no binding (tested: 1 ug/mL)”.

B3: Antibody 31C2 (antibody, V domains shown)
VH: QVQLVQSGAEVKKPGSSVKVSCKASGGTFSSYAISWVRQAPGQGLEWMGGIIPIFGTTNYAQKFQGRVTITADESTSTAYMELNSLRSEDTAVYYCAGRSAYGDKGYYFDYWGQGTLVTVSS
VL: EIVLTQSPATLSLSPGERATLSCRASQSVSNFLAWYQQKPGQAPRLLIYDASNRATGIPARFSGSGSGTDFTLTISSLQPEDFAVYYCQQRSNWPPQETFGQGTKVEIK
With B3, in the experiment with SARS-CoV-2 S1 subunit, the binding result is given as “no binding (tested: 1 ug/mL)”.

These data come from patent US20220073594A1 (NEWSOARA BIOPHARMA, published 2022).
